Target: Nitrosopumilus maritimus 4-hydroxybutyryl-CoA dehydratase (Nitrosopumilus maritimus)
Assay: crystal structure

Nitrosopumilus maritimus 4-hydroxybutyryl-CoA dehydratase (enzyme)
stoichiometry N: 4
